In patent publication US20150344570A1 (published 2015) one finds He/Con_2b, He/Con_2aH and Ho/Con_2b data, which are given here for eight molecules.

Test [1] has as its target T1, FcγRIIb (human, UniProt P31994 43-217).
T1 construct: extracellular domain; also called 2b; not shown: His tag at the C terminus
T1 sequence (looked up): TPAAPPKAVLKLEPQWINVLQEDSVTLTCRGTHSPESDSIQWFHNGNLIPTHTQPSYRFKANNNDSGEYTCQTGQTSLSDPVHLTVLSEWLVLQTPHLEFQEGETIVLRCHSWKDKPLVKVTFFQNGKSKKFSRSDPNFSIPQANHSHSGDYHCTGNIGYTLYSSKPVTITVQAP
Put plainly: SPR (Biacore), antibody captured, FcγR as analyte; binding relative to GpH7-A5/GpH7-B3/GpL16-k0 = 100. How it is done: (§1) The heterodimerized antibodies He Abs in which one of the H chains was introduced with an alteration were assayed for their binding activities to each activating FcγR and inhibitory FcγR according to the method described in Example 4. […] The activating FcγRs in FIGS. 26, 27, 28, and 29 are FcγRIa, FcγRIIa (R), FcγRIIa (H), and FcγRIIIa, respectively.
(§2) Analysis of interaction between objective antibody and the FcγR was carried out using Biacore T100 (GE Healthcare). HBS-EP+ (GE Healthcare) was used as the running buffer, and the measurement temperature was set to 25° C. Chips produced by immobilizing the antigen peptide by the amine coupling method to a Series S Sencor Chip CM5 (GE Healthcare), or alternatively, chips produced by allowing preliminarily biotinylated antigen peptides to interact with and immobilize onto a Series S Sensor Chip SA (certified) (GE Healthcare) were used. Antibodies of interest were captured onto an antigen peptide-immobilized chip, and allowed to interact to each FcγR diluted with running buffer. To regenerate and repeatedly use the chip, the antibodies captured on the chip were washed off by reacting 10 mM glycine-HCl, pH 1.5.
For orientation: Surface plasmon resonance follows binding to a sensor surface in real time, without labels.

Test [2] deals with T2, FcγRIIa H (human, UniProt P12318 34-217).
T2 construct: extracellular domain; also called FcγRIIa type H; 2aH; not shown: His tag at the C terminus
T2 sequence (looked up): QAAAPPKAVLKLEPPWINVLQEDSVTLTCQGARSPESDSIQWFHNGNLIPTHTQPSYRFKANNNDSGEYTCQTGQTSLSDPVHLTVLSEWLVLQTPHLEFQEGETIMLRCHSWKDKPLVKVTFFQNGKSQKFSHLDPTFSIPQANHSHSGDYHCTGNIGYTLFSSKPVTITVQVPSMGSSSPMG
The description is as above. How it is done:
as §1, §2

In test [3] the target is T3, human FcγRIIb extracellular domain with C-terminal His tag (human, UniProt P31994 43-217).
T3 construct: extracellular domain; also called FcgRIIb; 2b; not shown: His tag attached to the C terminus
T3 sequence (looked up): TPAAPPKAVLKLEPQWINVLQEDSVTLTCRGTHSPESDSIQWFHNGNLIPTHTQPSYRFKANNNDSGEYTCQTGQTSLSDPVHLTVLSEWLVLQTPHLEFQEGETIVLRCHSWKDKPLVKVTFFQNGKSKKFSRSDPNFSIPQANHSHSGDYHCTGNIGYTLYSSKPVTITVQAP
Put plainly: SPR (Biacore T100), antibody captured on antigen peptide chip, FcγRIIb as analyte; relative binding. How it is done:
as §2

B1: GpH7-A5/GpH7-B3 variant T335_02A/GpL16-k0 (antibody, human IgG1, kappa)
heavy 1: not shown
heavy 2: not shown
light: DIVMTQSPLSLPVTPGEPASISCQASESLVHSNRNTYLHWYLQKPGQSPQLLIYKVSNRFSGVPDRFSGSGSGTDFTLKISRVEAEDVGVYYCSQNTHVPPTFGQGTKVEIERTVAAPSVFIFPPSDEQLKSGTASVVCLLNNFYPREAKVQWKVDNALQSGNSQESVTEQDSKDSTYSLSSTLTLSKADYEKHKVYACEVTHQGLSSPVTKSFNRGEC
notes: Heterodimerized IgG1; mutation in the GpH7-B3 chain only; also called He Ab
Consider B1, for which the He/Con_2b in test [1] was 94 % of control. The He/Con_2aH in test [2] is 101 % of control.

B2: GpH7-B3 variant L328_03V/GpL16-k0 (Ho Ab) (antibody, human IgG1, kappa)
heavy: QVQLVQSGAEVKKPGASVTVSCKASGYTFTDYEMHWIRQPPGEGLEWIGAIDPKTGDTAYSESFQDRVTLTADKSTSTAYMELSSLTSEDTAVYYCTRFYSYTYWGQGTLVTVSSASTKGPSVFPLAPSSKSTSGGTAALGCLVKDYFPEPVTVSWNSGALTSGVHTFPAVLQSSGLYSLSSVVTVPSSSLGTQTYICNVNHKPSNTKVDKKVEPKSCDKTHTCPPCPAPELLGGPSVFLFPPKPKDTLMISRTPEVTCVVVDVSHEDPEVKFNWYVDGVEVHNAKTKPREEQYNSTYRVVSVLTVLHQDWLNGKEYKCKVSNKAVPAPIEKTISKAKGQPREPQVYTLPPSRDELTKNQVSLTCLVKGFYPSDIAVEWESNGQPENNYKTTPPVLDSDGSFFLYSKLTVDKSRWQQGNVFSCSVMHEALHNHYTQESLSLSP
light: DIVMTQSPLSLPVTPGEPASISCQASESLVHSNRNTYLHWYLQKPGQSPQLLIYKVSNRFSGVPDRFSGSGSGTDFTLKISRVEAEDVGVYYCSQNTHVPPTFGQGTKVEIERTVAAPSVFIFPPSDEQLKSGTASVVCLLNNFYPREAKVQWKVDNALQSGNSQESVTEQDSKDSTYSLSSTLTLSKADYEKHKVYACEVTHQGLSSPVTKSFNRGEC
notes: Anti-glypican-3 IgG1; mutation in both H chains; also called L328V homodimerized antibody
Regarding B2, in test [3], the Ho/Con_2b is 135 % of control GpH7-B3/GpL16-k0 (=100).

B3: GpH7-A5/GpH7-B3 variant Y296_18N/GpL16-k0 (antibody, human IgG1, kappa)
heavy 1: not shown
heavy 2: not shown
light: DIVMTQSPLSLPVTPGEPASISCQASESLVHSNRNTYLHWYLQKPGQSPQLLIYKVSNRFSGVPDRFSGSGSGTDFTLKISRVEAEDVGVYYCSQNTHVPPTFGQGTKVEIERTVAAPSVFIFPPSDEQLKSGTASVVCLLNNFYPREAKVQWKVDNALQSGNSQESVTEQDSKDSTYSLSSTLTLSKADYEKHKVYACEVTHQGLSSPVTKSFNRGEC
notes: as for B1
On to B3, for which, in test [1], the He/Con_2b is 91.5 % of control. Moreover, the He/Con_2aH in test [2] was 104 % of control.

B4: GpH7-A5/GpH7-B3 variant T335_06M/GpL16-k0 (antibody, human IgG1, kappa)
heavy 1: not shown
heavy 2: not shown
light: DIVMTQSPLSLPVTPGEPASISCQASESLVHSNRNTYLHWYLQKPGQSPQLLIYKVSNRFSGVPDRFSGSGSGTDFTLKISRVEAEDVGVYYCSQNTHVPPTFGQGTKVEIERTVAAPSVFIFPPSDEQLKSGTASVVCLLNNFYPREAKVQWKVDNALQSGNSQESVTEQDSKDSTYSLSSTLTLSKADYEKHKVYACEVTHQGLSSPVTKSFNRGEC
notes: as for B1
In the case of B4, the He/Con_2b in test [1] was 99.4 % of control. Also, the He/Con_2aH in test [2] is 103 % of control.

B5: GpH7-A5/GpH7-B3 variant Y300_08L/GpL16-k0 (antibody, human IgG1, kappa)
heavy 1: not shown
heavy 2: not shown
light: DIVMTQSPLSLPVTPGEPASISCQASESLVHSNRNTYLHWYLQKPGQSPQLLIYKVSNRFSGVPDRFSGSGSGTDFTLKISRVEAEDVGVYYCSQNTHVPPTFGQGTKVEIERTVAAPSVFIFPPSDEQLKSGTASVVCLLNNFYPREAKVQWKVDNALQSGNSQESVTEQDSKDSTYSLSSTLTLSKADYEKHKVYACEVTHQGLSSPVTKSFNRGEC
notes: as for B1
With B5, the He/Con_2b in test [1] is 73.6 % of control. The He/Con_2aH in test [2] is 108 % of control.

B6: GpH7-A5/GpH7-B3 variant Y296_09D/GpL16-k0 (antibody, human IgG1, kappa)
heavy 1: not shown
heavy 2: not shown
light: DIVMTQSPLSLPVTPGEPASISCQASESLVHSNRNTYLHWYLQKPGQSPQLLIYKVSNRFSGVPDRFSGSGSGTDFTLKISRVEAEDVGVYYCSQNTHVPPTFGQGTKVEIERTVAAPSVFIFPPSDEQLKSGTASVVCLLNNFYPREAKVQWKVDNALQSGNSQESVTEQDSKDSTYSLSSTLTLSKADYEKHKVYACEVTHQGLSSPVTKSFNRGEC
notes: as for B1
B6: the He/Con_2b in test [1] was 98.9 % of control. In test [2], the He/Con_2aH was 104 % of control.

B7: GpH7-A5/GpH7-B3 variant T335_05P/GpL16-k0 (antibody, human IgG1, kappa)
heavy 1: not shown
heavy 2: not shown
light: DIVMTQSPLSLPVTPGEPASISCQASESLVHSNRNTYLHWYLQKPGQSPQLLIYKVSNRFSGVPDRFSGSGSGTDFTLKISRVEAEDVGVYYCSQNTHVPPTFGQGTKVEIERTVAAPSVFIFPPSDEQLKSGTASVVCLLNNFYPREAKVQWKVDNALQSGNSQESVTEQDSKDSTYSLSSTLTLSKADYEKHKVYACEVTHQGLSSPVTKSFNRGEC
notes: as for B1
As to B7, the He/Con_2b in test [1] is 99.9 % of control. The He/Con_2aH in test [2] was 108 % of control.

B8: GpH7-A5/GpH7-B3 variant Y296_04F/GpL16-k0 (antibody, human IgG1, kappa)
heavy 1: not shown
heavy 2: not shown
light: DIVMTQSPLSLPVTPGEPASISCQASESLVHSNRNTYLHWYLQKPGQSPQLLIYKVSNRFSGVPDRFSGSGSGTDFTLKISRVEAEDVGVYYCSQNTHVPPTFGQGTKVEIERTVAAPSVFIFPPSDEQLKSGTASVVCLLNNFYPREAKVQWKVDNALQSGNSQESVTEQDSKDSTYSLSSTLTLSKADYEKHKVYACEVTHQGLSSPVTKSFNRGEC
notes: as for B1
Turning to B8, in test [1], the He/Con_2b is 99.2 % of control. Further, in test [2], the He/Con_2aH was 100 % of control.
